Assay [1] has as its target T1, FRHSVV peptide, common epitope of mutant p53 (biotinylated) (human). The assay can be described thus: BIAcore (SPR), data not shown. (SPR reads the build-up and loss of mass on a sensor chip optically.)
Assay [2] addresses T1, FRHSVV peptide, common epitope of …. The assay can be described thus: BIAcore (SPR), biotinylated peptide on streptavidin SA chip, scFv injected, 1:1 Langmuir model.

B1: A6 scFv (scFv)
scFv: VQLLESGGGLVQPGGSPRLSCAASGFTFSGYWMHWVRQAPGKGLEWVSEISGSGDSTHYGDSVKGRFTISRDNSKNTLYLQMNSLRAEDTAVYYCARGRNGSLDYWGQGTLVTVSSGSAGGGGSGGGGSGGGGSDIVLTQPPSASGTPGQRVTISCTGGRFNIGDYAVNWYQQLPGKAPKLLIYDNDRRPSGVSDRFSGSKSGTSASLAISGLRSEDEADYYCAAWDDSLDGLVFGGGTQLTV
As for B1, in assay [1], the Kd – broadly, the constant that tells how readily two partners part at equilibrium – is 23 nM.

B2: F2 scFv (scFv)
scFv: VQLLESGGGLVQPGGSLRLSCAASGFTFSGYWMHWVRQAPGKGLEWVSEISGSGDSTHYGDSVKGRFTISRDNSKNTLYLQMNSLRAEDTAVYYCARGRNGSLDYWGQGTLVTVSSGSAGGGGSGGGGSGGGGSDIVLTQPPSASGTPGQRVTISCSGTSSNIGADYDVHWYQQLPGKAPKLLIYDNNKRPSGVSDRFSGSKSGTSASLAISGLRSEDEADYYCAAWDSSLSSVVFGGGTQLTV
Consider B2, for which the Kd in assay [2] is 11 nM.
